Results reported in patent publication US20090142784.

How the values were obtained:
[1] = system: T1, LRRKtide peptide (RLGRDKYKTLRQIRQ)
T1 sequence: RLGRDKYKTLRQIRQ

[2] = system: T2, LongLRRKtide (RLGRDKYKTLRQIRQGNTKQR)
T2 sequence: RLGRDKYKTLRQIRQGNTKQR

Substance: GST-LRRK2[1326-2527]
- Km (phosphorylation of LRRKtide, P81 paper 32P assay) [1]: a similar Km of approximately 200 µM
- affinity relative to LRRKtide (from phosphorylation with LRRK2) [2]: The LRRK2 affinity for the longLRRKtide is ten fold more than that that of LRRKtide
